The results in this text go back to PMC3170320, “Minimal Antizyme Peptide Fully Functioning in the Binding and Inhibition of Ornithine Decarboxylase and Antizyme Inhibitor” (PLoS ONE, 2011).

B9: human ornithine decarboxylase, wild type (enzyme, UniProt P11926 1-461, looked up)
chain: MNNFGNEEFDCHFLDEGFTAKDILDQKINEVSSSDDKDAFYVADLGDILKKHLRWLKALPRVTPFYAVKCNDSKAIVKTLAATGTGFDCASKTEIQLVQSLGVPPERIIYANPCKQVSQIKYAANNGVQMMTFDSEVELMKVARAHPKAKLVLRIATDDSKAVCRLSVKFGATLRTSRLLLERAKELNIDVVGVSFHVGSGCTDPETFVQAISDARCVFDMGAEVGFSMYLLDIGGGFPGSEDVKLKFEEITGVINPALDKYFPSDSGVRIIAEPGRYYVASAFTLAVNIIAKKIVLKEQTGSDDEDESSEQTFMYYVNDGVYGSFNCILYDHAHVKPLLQKRPKPDEKYYSSSIWGPTCDGLDRIVERCDLPEMHVGDWMLFENMGAYTVAAASTFNGFQRPTIYYVMSGPAWQLMQQFQNPDFPPEVEEQDASTLPVSCAWESGMKRHRAACASASINV
notes: ornithine decarboxylase (ODC, EC 4.1.1.17), human, wild type; Kd was fitted with an A+B to AB model; also called ODC

The target in data set [1] is B9. Briefly: AUC; sedimentation velocity, 42,000 rpm, 20°C; ODC fixed at 0.3 mg/mL, AZ or AZ peptide 0.015 to 0.2 mg/mL (molar ratio AZ/ODC 0.12 to 2); 30 mM Tris-HCl pH 7.4, 25 mM NaCl; global fit to the A+B to AB hetero-association model in SEDPHAT. Conditions: both partners purified.
Data set [2] has as its target T1, human antizyme inhibitor, wild type (human, UniProt O14977 1-448).
T1 construct: also called AZI
T1 sequence (looked up): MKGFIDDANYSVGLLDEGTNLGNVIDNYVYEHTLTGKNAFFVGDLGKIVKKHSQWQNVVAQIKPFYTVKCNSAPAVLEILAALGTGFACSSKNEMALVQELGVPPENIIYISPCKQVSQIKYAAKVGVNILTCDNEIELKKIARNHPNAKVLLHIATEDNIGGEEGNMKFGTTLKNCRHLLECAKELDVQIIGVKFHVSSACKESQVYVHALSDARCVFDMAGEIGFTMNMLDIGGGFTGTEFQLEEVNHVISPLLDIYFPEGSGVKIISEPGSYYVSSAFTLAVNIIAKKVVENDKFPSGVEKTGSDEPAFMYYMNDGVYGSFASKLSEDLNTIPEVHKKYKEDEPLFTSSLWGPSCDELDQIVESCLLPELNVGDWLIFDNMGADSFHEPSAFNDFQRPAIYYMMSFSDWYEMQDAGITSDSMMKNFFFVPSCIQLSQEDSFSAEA
Briefly: AUC; sedimentation velocity, 20°C; AZI fixed at 0.3 mg/mL, AZ or AZ peptide 0.05 to 0.24 mg/mL (molar ratio AZ/AZI 0.4 to 2.4); 30 mM Tris-HCl pH 7.4, 25 mM NaCl; global fit to the A+B to AB hetero-association model in SEDPHAT. To be noted: both partners purified.

Data set [3] deals with T1, human antizyme inhibitor, wild type. The data set can be described thus: cell-based or functional assay.
For data set [4], the target named is B9. The data set can be described thus: cell-based or functional assay.
Data set [5] concerns the molecule itself. Briefly: AUC; sedimentation velocity, 42,000 rpm, 20°C; ODC fixed at 0.3 mg/mL, AZ or AZ peptide 0.015 to 0.2 mg/mL (molar ratio AZ/ODC 0.12 to 2); 30 mM Tris-HCl pH 7.4, 25 mM NaCl; global fit to the A+B to AB hetero-association model in SEDPHAT.

B1: human antizyme peptide AZ_87-124 (domain or fragment)
chain: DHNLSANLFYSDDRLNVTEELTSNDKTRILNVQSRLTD
On to B1, for which the dissociation constant (Kd) (usually the free concentration of one partner at which half of the binding sites on the other are occupied at equilibrium, for simple one-to-one binding) turned out to be 12700 ± 280 nM in data set [1] and 160 ± 1 nM in data set [2]. For the same molecule, the “IC50 of inhibition of ODC enzyme activity with ODC pre-incubated with equimolar AZI (m1 as the enzyme)” value (“IC50 of inhibition … (m1 as the enzyme)” below) in data set [3] came to 1550 nM. In addition, the “IC50 of inhibition of ODC enzyme activity (ODC 0.19 µM), without AZI” value (“IC50 of inhibition … without AZI” for short) in data set [4] was 520 nM.

B2: human antizyme peptide AZ_95-124 (domain or fragment)
chain: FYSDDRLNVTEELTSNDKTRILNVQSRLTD
Consider B2, for which the results for the Kd in data set [1] and in data set [2] were 18600 ± 130 nM and 280 ± 2 nM, respectively. In addition, the “IC50 of inhibition … (m1 as the enzyme)” value in data set [3] was 1980 nM. Also, the “IC50 of inhibition … without AZI” value in data set [4] was 650 nM.

B3: human antizyme peptide AZ_100-176 (domain or fragment)
chain: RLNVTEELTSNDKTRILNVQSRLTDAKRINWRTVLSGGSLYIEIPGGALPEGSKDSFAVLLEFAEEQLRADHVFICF
Turning to B3, in data set [1], the equilibrium dissociation constant (Kd) was determined as 10800 ± 70 nM. In addition, the “IC50 of inhibition … (m1 as the enzyme)” value in data set [3] was 1420 nM. Also, in data set [4], the “IC50 of inhibition … without AZI” value stood at 430 nM.

B4: human antizyme peptide AZ_95-176 (domain or fragment)
chain: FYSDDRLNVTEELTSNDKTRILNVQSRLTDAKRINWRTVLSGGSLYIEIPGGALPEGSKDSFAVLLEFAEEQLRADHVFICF
With B4, the Kd in data set [1] is 5600 ± 40 nM; in data set [2], 60 ± 4 nM. Further, the “IC50 of inhibition … (m1 as the enzyme)” value in data set [3] is 680 nM. Besides, in data set [4], the “IC50 of inhibition … without AZI” value is 200 nM.

B5: human antizyme peptide AZ_95-135 (domain or fragment)
chain: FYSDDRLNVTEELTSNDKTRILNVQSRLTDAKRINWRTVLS
Consider B5, for which, in data set [1], the Kd worked out at 10300 ± 70 nM. Besides, the “IC50 of inhibition … (m1 as the enzyme)” value in data set [3] came to 1590 nM. Moreover, in data set [4], the “IC50 of inhibition … without AZI” value was determined as 510 nM.

B6: human antizyme peptide AZ_95-228 (domain or fragment)
chain: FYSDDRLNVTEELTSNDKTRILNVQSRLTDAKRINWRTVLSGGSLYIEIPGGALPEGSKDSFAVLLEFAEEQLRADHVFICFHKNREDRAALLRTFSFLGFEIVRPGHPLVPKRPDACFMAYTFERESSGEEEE
For the molecule B6, the values for the Kd in data set [1] and in data set [2] were 1500 ± 10 nM and 24 ± 0.2 nM, respectively. In addition, the “IC50 of inhibition … (m1 as the enzyme)” value in data set [3] was 570 nM. For the same molecule, the “IC50 of inhibition … without AZI” value in data set [4] was found to be 160 nM.

B7: human antizyme peptide AZ_100-228 (domain or fragment)
chain: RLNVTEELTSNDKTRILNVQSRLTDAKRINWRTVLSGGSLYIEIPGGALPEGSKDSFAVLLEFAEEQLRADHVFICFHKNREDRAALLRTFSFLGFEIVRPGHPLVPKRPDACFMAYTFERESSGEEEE
As to B7, the equilibrium dissociation constant (Kd) in data set [1] came to 5300 ± 30 nM; in data set [2], 68 ± 0.7 nM. Further, the “IC50 of inhibition … (m1 as the enzyme)” value in data set [3] came out at 620 nM. The “IC50 of inhibition … without AZI” value in data set [4] is 210 nM.

B8: human antizyme, wild type (natural protein)
chain: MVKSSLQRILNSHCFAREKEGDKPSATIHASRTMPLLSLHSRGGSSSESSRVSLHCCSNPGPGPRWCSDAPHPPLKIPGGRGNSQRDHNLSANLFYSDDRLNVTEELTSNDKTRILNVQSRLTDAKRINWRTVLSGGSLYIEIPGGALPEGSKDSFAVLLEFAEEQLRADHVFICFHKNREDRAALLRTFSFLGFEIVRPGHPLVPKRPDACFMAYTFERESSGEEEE
As to B8, the Kd is 710 ± 5 nM in data set [1] and 27 ± 0.1 nM in data set [2]. Further, in data set [3], the “IC50 of inhibition … (m1 as the enzyme)” value was 500 nM. In data set [4], the “IC50 of inhibition … without AZI” value came out at 160 nM.

In the case of B9, the binding result in data set [5] is “binds”.
